Laboratory results published in publication PMC8379338, “Structures of heat shock factor trimers bound to DNA” (iScience, 2021).

Key:
HSF2-DBD = HSF2-DBD (Homo sapiens, UniProt Q03933 7-112); experiment: X-ray crystallography; 1.7 A; Co-crystallization at 20 C, hanging drop; protein stock in 20 mM Tris pH 8.0, 150 mM NaCl, 1 mM DTT, 0.2 mM EDTA; DNA annealed in TE; protein:DNA 2:1.5 (2-site) or 3:1.2 (3-site); HSF2 3-site reservoir 0.1 M HEPES pH 7.5, 25% PEG; settings: protein: recombinant; tags: His6 (N-terminal, between MBP and DBD; MBP removed in vivo by TEV protease); chain copies: 2; blunt; self-complementary, 2 copies of the strand
HSF1-DBD = HSF1-DBD (Homo sapiens, UniProt Q00613 15-120); experiment: X-ray crystallography; 2.0 A; Co-crystallization at 20 C, hanging drop; protein stock in 20 mM Tris pH 8.0, 150 mM NaCl, 1 mM DTT, 0.2 mM EDTA; DNA annealed in TE; protein:DNA 2:1.5 (2-site) or 3:1.2 (3-site); HSF2 3-site reservoir 0.1 M HEPES pH 7.5, 25% PEG; settings: protein: recombinant; tags: His6 (N-terminal, between MBP and DBD; MBP removed in vivo by TEV protease); chain copies: 2; blunt; self-complementary, 2 copies of the strand
HSF2-DBD trimer = HSF2-DBD trimer (Homo sapiens, UniProt Q03933 7-112); experiment: X-ray crystallography; 1.75 A; Co-crystallization at 20 C, hanging drop; protein stock in 20 mM Tris pH 8.0, 150 mM NaCl, 1 mM DTT, 0.2 mM EDTA; DNA annealed in TE; protein:DNA 2:1.5 (2-site) or 3:1.2 (3-site); HSF2 3-site reservoir 0.1 M HEPES pH 7.5, 25% PEG; settings: protein: recombinant; tags: His6 (N-terminal, between MBP and DBD; MBP removed in vivo by TEV protease); chain copies: 3; 20 bp, 5' overhang 1 nt on both strands
HSF1-DBD trimer [1] = biological target: T1, HSF1-DBD trimer (Homo sapiens, UniProt Q00613 15-120); experiment: X-ray crystallography; 2.4 A; Co-crystallization at 20 C, hanging drop; protein stock in 20 mM Tris pH 8.0, 150 mM NaCl, 1 mM DTT, 0.2 mM EDTA; DNA annealed in TE; protein:DNA 2:1.5 (2-site) or 3:1.2 (3-site); HSF2 3-site reservoir 0.1 M HEPES pH 7.5, 25% PEG; settings: protein: recombinant; tags: His6 (N-terminal, between MBP and DBD; MBP removed in vivo by TEV protease); chain copies: 3; 22 bp, 5' overhang 1 nt on both strands
[2] = biological target: the molecule itself; experiment: crystal structure; DBD co-crystallised with a sticky-ended three-site HSE DNA duplex (21 bp for HSF2; 23 bp and 24 bp for HSF1); protein:DNA molar ratio 3:1.2; hanging drop, 20°C; three DBD copies on one DNA duplex
HSF1-DBD trimer [3] = biological target: T1, HSF1-DBD trimer; experiment: X-ray crystallography; 2.36 A; Co-crystallization at 20 C, hanging drop; protein stock in 20 mM Tris pH 8.0, 150 mM NaCl, 1 mM DTT, 0.2 mM EDTA; DNA annealed in TE; protein:DNA 2:1.5 (2-site) or 3:1.2 (3-site); HSF2 3-site reservoir 0.1 M HEPES pH 7.5, 25% PEG; settings: protein: recombinant; tags: His6 (N-terminal, between MBP and DBD; MBP removed in vivo by TEV protease); chain copies: 3; 23 bp, 5' overhang 1 nt on both strands

B1: 12 bp HtH HSE (dsDNA)
DNA 1: GGGAATATTCCC
DNA 2: GGGAATATTCCC
B1: binds (HSF2-DBD).

B2: 14 bp HtH HSE (dsDNA)
DNA 1: GCCGAATATTCGGC
DNA 2: GCCGAATATTCGGC
B2: binds (HSF1-DBD).

B3: 21 bp 3-site HSE (dsDNA)
DNA 1: TGCGTTCTAGAATATTCGCGG
DNA 2: ACCGCGAATATTCTAGAACGC
B3: binds (HSF2-DBD trimer).

B4: 23 bp 3-site HSE (dsDNA)
DNA 1: TGGCGTTCTAGAATATTCGCGGA
DNA 2: ATCCGCGAATATTCTAGAACGCC
B4: binds (HSF1-DBD trimer [1]).

B5: DNA-binding domain (DBD) of human heat shock factor 2 (HSF2), residues 7-112 (domain or fragment, UniProt Q03933 7-112, looked up)
chain: VPAFLSKLWTLVEETHTNEFITWSQNGQSFLVLDEQRFAKEILPKYFKHNNMASFVRQLNMYGFRKVVHIDSGIVKQERDGPVEFQHPYFKQGQDDLLENIKRKVS
notes: The His6 tag lies between the TEV site and the DBD; MBP was removed in vivo by co-expressed TEV protease; In the crystals, two or three copies sit on one DNA duplex; also called HSF2-DBD; DBD I; source: E. coli Rosetta2(DE3) carrying pRK603, purified (Ni-NTA, cation exchange, SEC); not shown: MBP, N-terminal, cleaved
B5: binds [2].

B6: 24 bp 3-site HSE (dsDNA)
DNA 1: TGTGCGTTCTAGAATATTCGCGAG
DNA 2: ACTCGCGAATATTCTAGAACGCAC
B6: binds (HSF1-DBD trimer [3]).

B7: DNA-binding domain (DBD) of human heat shock factor 1 (HSF1), residues 15-120 (domain or fragment, UniProt Q00613 15-120, looked up)
chain: VPAFLTKLWTLVSDPDTDALICWSPSGNSFHVFDQGQFAKEVLPKYFKHNNMASFVRQLNMYGFRKVVHIEQGGLVKPERDDTEFQHPCFLRGQEQLLENIKRKVT
notes: The His6 tag lies between the TEV site and the DBD; MBP was removed in vivo by co-expressed TEV protease; In the crystals, two or three copies sit on one DNA duplex; also called HSF1-DBD; DBD I; source: E. coli Rosetta2(DE3) carrying pRK603, purified (Ni-NTA, cation exchange, SEC); not shown: MBP, N-terminal, cleaved
B7: binds [2].
